In PMC9811684 (2023):

Tests used:
Test in all cases: multimer staining
[1] = biological target: T1, OC43 spike protein peptide on HLA-A*24:02 (human)
T1 peptide: YYVKWPWYVW

[2] = biological target: T2, HKU1 spike protein peptide on HLA-A*24:02 (human)
T2 peptide: MYVKWPWYVW

[3] = biological target: T3, SARS-CoV-2 spike protein (SPIKE) peptide on HLA-A*24:02 (human)
T3 peptide: QYIKWPWYIW

[4] = biological target: T4, NL63 spike protein peptide on HLA-A*24:02 (human)
T4 peptide: NYIKWPWWVW

[5] = biological target: T5, 229E spike protein peptide on HLA-A*24:02 (human)
T5 peptide: TYIKWPWWVW

[6] = biological target: T6, SARS-CoV-1 spike protein peptide on HLA-A*24:02 (human)
T6 peptide: QYIKWPWYVW

[7] = biological target: T7, SARS-CoV-2 spike protein (SPIKE) peptide on HLA-A*23:01 (human)
T7 peptide: QYIKWPWYIW

Measured: binding result

B1: TCRQYI (TCR)
alpha TRAV20*01 TRAJ32*01 CDR3: CAALNYGGATNKLIF
beta TRBV4-3*01 TRBJ2-7*01 CDR3: CASSPSGGAYEQYF
recognises: all assays above
